Experimental data from patent publication US20250136673A1.

Target: recombinant human VEGF (R&D Systems, 293-VE-010) (human) (UniProt P15692)
Assay: Octet HTX biosensor kinetics; antibody at 10 ug/mL in 1x kinetics buffer; recombinant human VEGF 200 nM to 3.125 nM

UniProt P15692, sequence (P15692 other isoform, or with tags, fused parts or gaps limits assumed): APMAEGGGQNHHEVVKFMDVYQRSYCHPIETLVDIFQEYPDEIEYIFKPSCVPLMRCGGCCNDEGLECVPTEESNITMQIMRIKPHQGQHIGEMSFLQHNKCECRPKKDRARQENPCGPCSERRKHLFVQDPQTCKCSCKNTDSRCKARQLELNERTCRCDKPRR

Kd: 229 pM
koff: 7.77e-05 s⁻¹
kon: 340000 M⁻¹ s⁻¹
Substance: mouse anti-human VEGF monoclonal antibody (anti-hVEGF MmAb; R&D Systems, MAB293-100)
